B1: NF-kappa-B inhibitor alpha (Homo sapiens), P25963 (parent)
chain: MFQAAERPQEWAMEGPRDGLKKERLLDDRHDSGLDSMKDEEYEQMVKELQEIRLEPQEVPRGSEPWKQQLTEDGDSFLHLAIIHEEKALTMEVIRQVKGDLAFLNFQNNLQQTPLHLAVITNQPEIAEALLGAGCDPELRDFRGNTPLHLACEQGCLASVGVLTQSCTTPHLHSILKATNYNGHTCLHLASIHGYLGIVELLVSLGADVNAQEPCNGRTALHLAVDLQNPDLVSLLLKCGADVNRVTYQGYSPYQLTWGRPSTRIQQQLGQLTLENLQMLPESEDEESYDTESEFTEFTEDELPYDDCVFGGQRLTL
partner: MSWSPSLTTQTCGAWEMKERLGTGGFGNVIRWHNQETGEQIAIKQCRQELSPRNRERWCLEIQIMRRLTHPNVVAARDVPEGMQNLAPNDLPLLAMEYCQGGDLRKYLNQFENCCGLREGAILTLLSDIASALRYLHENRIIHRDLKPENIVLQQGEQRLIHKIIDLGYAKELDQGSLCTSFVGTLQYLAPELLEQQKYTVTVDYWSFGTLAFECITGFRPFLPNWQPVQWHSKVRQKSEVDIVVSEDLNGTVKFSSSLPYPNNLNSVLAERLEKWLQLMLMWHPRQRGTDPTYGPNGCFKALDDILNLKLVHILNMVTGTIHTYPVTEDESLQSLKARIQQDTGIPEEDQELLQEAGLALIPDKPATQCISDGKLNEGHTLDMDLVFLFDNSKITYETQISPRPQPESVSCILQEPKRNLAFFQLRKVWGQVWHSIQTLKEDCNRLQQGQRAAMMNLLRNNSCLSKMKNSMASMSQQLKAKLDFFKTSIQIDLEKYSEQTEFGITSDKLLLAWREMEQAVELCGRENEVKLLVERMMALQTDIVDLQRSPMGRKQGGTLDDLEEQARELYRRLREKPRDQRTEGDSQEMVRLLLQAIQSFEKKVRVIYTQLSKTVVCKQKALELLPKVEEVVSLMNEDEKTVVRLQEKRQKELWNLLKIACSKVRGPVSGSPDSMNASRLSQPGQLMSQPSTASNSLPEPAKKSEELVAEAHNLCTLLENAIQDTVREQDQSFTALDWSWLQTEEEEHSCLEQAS

Variants of: B1
Details: with ikkb_human IKBKB

| Variant | effect of a mutation on the interaction |
| --- | --- |
| S32A;S36A | decreasing interaction |
